Data as given in a protein production outcome set (Wang et al. 2014).

Assay: label from the status in PepcDB records

LAEKAGIGVWSYEPETQRIDWAPDALALMGVSPEDIATPELFLARLPENHRAEVQAAFVHAARTGEGGTLEYRLRANDGRWFTLRATYRTEARPGSGFALKGVSQNITDVARS
protein production: failed

EKIGDRTYRVVSRLSLEDLKDHIEEELDLEIEFGDEIEDQVDTVGGLIAFELGRVPLPGATVETCGLKLTAEGAKNRRGRLRMHSAVVEVGE
protein production: not failed

MRQTQVKSPYCHQSNYKLAIAIITVITGTVVTGATVTTGTAIMNGVKTAGGIMIMATIVAGISVKRMNVAIVKAGAIVTIIVEKAADMDTAIKHIRQWSTMPDATLARLIRPTNQLFNA
protein production: failed

MPRLTTRALTRCLLATLALLCIALPALAAAPITPLRVMSFNVRVPVDTDGDKRWQARRGAMVSVIKQTHPDVFGTQELVSEQAGYLAAQLPNYRWFGQGRRGDDSDEHMGVFYDTRTLNVVESGNFWLSDTPEVAGSITWGNVLPRMVTWALFERRSDKRRFYLFNTHFPYRDEDEPAREHSARLILSRIAQLPADIPVVLTGDFNSDPDKITYPTLTAVLGDARARAPKRSGPENTFQDFSTHPTRRIDWILFRGLTPTQFTTLDDRPGGVLPSDHYPVLAEFAWPR
protein production: failed

MSNMVEVPIFIAILSFIVMCIGELLAYYSVSLKYKYEFEAISFGFIFGVATLILIPKSYSNMFVLYVILGMITVYLIEKYLAYCPLSKKYCVECDNLEENRIKFIYPISFFIHTFIDGLIIAVSYISEIGLPLYLAILMHKLPAGFVLISPLKGVYKNPLYPGVFVSFGTVLGTIVGLVTLKDVSTKILLAFSGGVFLGAFLMLAPHIYEHKEEKTFLYILLGYILVGIIALH
protein production: failed

GAPFRSTVTLQPTSGSLVNLTEWPPFVITLDDVELVHFERVQFHLRNFDMIFVFKEYNKKVAMVNAIPMNMLDHVKEWLNSCDIRYSEGVQSLNWQKIMKTITDDP
protein production: failed

RVLEFHPLGSGLAMTEFVVGSRLMGKTLSDLALCKVEGVQVLGFKRGPEIIKAPDMSTTLEIGDLIIVVGPQDKLANKLKSL
protein production: failed

EHNYHPNAVAAGLRAGRTRSIGLVIPDLENTSYTRIANYLERQARQRGYQLLIACSEDQPDNEMRCIEHLLQRQVDAIIVSTSLPPEHPFYQRWANDPFPIVALDRALDREHFTSVVGADQDDAEMLAEELRKFPAETVLYLGALPELSVSFLREQGFRTAWKDDPREVHFLYANSYEREAAAQLFEKWLETHPMPQALFTTSFALLQGVMDVTLRRDGKLPSDLAIATFGDNELLDFLQCPVLAVAQRHRDVAERVLEIVLASLDEPRKPKPGLTRIKRNLYRRGVLSRS
protein production: not failed

MQILQTFVQSIQGVMTIIVMIAVGYLLARWGWFNESATKLIARLVTQIALPAYMIATITKQFTAHKLLSTLPGLRFPVLNMAILFGISFGVMRALNIKKSHRGLFASMFLNSNTVFIGLPVNQALFGNSALPYVLVYYMANTTIFWTLGVYLIQRDGTGTAKFDLKQTLTKIFSPPLLGFMIGVLLVLGNIHVPKFLMDDFSYIGGLTIPLSMIFIGISMANAGLSSMRFDRDSLGILLGRFILAPVLMTLMLIPMSIPLEMKQVFILQSAMPVMTNAPVVSKLYGADADYAAVMVTETTLLSLIVIPILMVIVQANFIR
protein production: failed

MSAHLLIILPLIIPFVAAVAALLFARWPTVQKGINIVSMGGILAASLGLLSRITEQGIQVTTIGDWPVPFGIVFVVDHLSVVMLIVSAIIGLAVAVYAVPDVDDARVRFGFYPFFNLLMIGINGAFLTGDLFNLYVWFEVMLISSFVLIVLGNTDEQLAGAVKYVVINLVSSLLFLSGVGLVYGMTGTLNMAELSLALSEVGQPGLVTVVAMLFLISFGIKAALFPLFFWLPASYHTPPASVSAFFAGLLTKVGVYALFRVFTLLFTQDVGYTHTLLLWGAGLTMVTGVLGAAVQNDFRRVLSFHIVSQIGYMIMGLALYTPLAILGGVFYIVHHIIVKANLFLVSGVAKRLRGSFSLKSLDGLYAYHPWLAALFIIPAFSLAGFPPLSGFWAKLILTIAGIETGAYWIVTVAVAVGLFTMFSMTKIWVKAFLPGGGGDLADAVSSMGLGTRVMYVPIAGLAALTIMISVFAGPVYDLAERSADELYNSSEYVEAVLNHEKSAADAGPRPGVDGRTGRVHAR
protein production: failed

MPDYGHDLLFGAVLTPDAQNPRAVLESARLADRSGLDLVSVPDHPYRPDFLDAWTLLSVIAAHTERVRVFPNVANLPLRPPAGLARAAAALDVLSGGRVELGLGAGGYWDAIAGEGQPRRTPGEAVEALAEAIDVIRALWASGGAGATVDGTHYRLDGARPGPPAAHPLGIWVGALGPRMLRLIGRTADGWLPSATRVPPAELAVGQRIVDEAAIAAGRDPRAVRRLYNLP
protein production: failed

MGHHHHHHSHMTCGAWEMKERLGTGGFGNVIRWHNQETGEQIAIKQCRQELSPRNRERWCLEIQIMRRLTHPNVVAARDVPEGMQNLAPNDLPLLAMEYCQGGDLRKYLNQFENCCGLREGAILTLLSDIASALRYLHENRIIHRD
protein production: failed

MFIERLVALLLLFAGEFAYLRIADRFNIIDRPNQRSSHKKNVLRGGGIIFLLGVWMYAFLNTTGYPLFIGGMTLIASVAFIDDVCSLSPRFRFFVQFVAMFLLLQEAGMLVENKVWFLLPTMILGVCIINAYNFMDGINGMTGAFSLMVLFTFWLLNREMAFIDATLIELLMISALVFCFFNFRNQAICFAGDVGSVGMAYCVIFILLKLVLFTGNVTYLLFLVVYGIDTVLTIFHRLLLHENLLQPHRKHLFQLLANEGGHSHVTVSITYVLLQLAISLGYIYLPIDKWLYSVIVTIGLVTAYLIIERKLYPKHKEYLKSLSCAVMDEGYSEKCLRNEN
protein production: failed

MSNKGSSDLRLLLSTLVISGLVAGLAYWQLSQHWTRSPDQNAGSPLHTPTSKWQKIALAMTLRGHEDEVNAIALSPDGNFLVSAGDDRRLYFWNLATGTALGQAKGHTDWIYALVMTPDGQTVISGSKDKTIKLWGVGDRQLQATLSGHQDFVNGLALSPDGRTLASASYDHTVKLWNVPSRQEITTLKANEGIMLSVAISRDGRFLATGGVDKLIRIWDLPSRRLLRTLEGHTSDVNSLAFTPDSSQLVSGSDKDGIKLWNLTTGELQQQFGTEGGQVFSVAVSPDGSTLASGHGDQTVKLWSLSGQLLRNLKGHSGAVYSVVFGQDQLISASEDKTIKVWRLFPETP
protein production: failed

MNYDRYYTCDLVNGEGVRVTLFVTGCAHACDGCHNRSTWDRKSGRPFTPEAREELLRHCASHDGLSLSGGDPLLPANRDEILALCRMFKQRYPQKNIWLWTGYDYEEVRELEILQFVDVLIDGRYRQDLPTSKPWRGSDNQRLIRLGAGSGAAVAAVGAADVIAFEA
protein production: failed

MSSSLDLAPELSVASTHPASTLAGHQPDLVLSPRLHNRDLAPTRMEGRRWGGYSIFALWTNDVHNIANYSFAMGLFALGLGGWQILLSLAIGAALVYFFMNLSGYMGQKTGVPFPVISRIAFGIHGAQIPALIRAVIAIAWFGIQTYLASVVLRVLLTAVWPQIAAYDHDSILGLSSLGWVCFVSIWLVQLVILAYGMEMVRRYEAFAGPVILLTVAALAVFMYFKADARIAWSVATPLTGYEMWRNIFAGGALWLAIYGTLVLNFCDFARSSPCRKTIRVGNFWGLPVNILVFAVITVVLCGAQFQINGQIIDSPTQIVAAIPSTPFLVLGCLAFLIVTVAVNIMANFVAPAFVLSNLAPRHLNFRRAGLISATLAVLILPWNLYNSPLVIVYFLSGLGALLGPLYGVIMSDYWLLRKGCINVPELYTEHPAGAYHYSKGINLRAVAAFVPAALLAIVLALVPNFQGIAPFSWLIGAGIAAALYLLIAPRNRHYHDVSGECIAVDHSGH
protein production: failed

MTSPSPDQVIRQEILALSAYHVPPAKDMVKLDAMENPYRLPPFLCEEISRIAADTSINRYPDPHAAALKEVLSTTLSVPAGMEIMLGNGSDEIIQIIMLAAAKPEAKLLTIEPGFAMFKMIATFANMQYIGIPLKPDFSLDIDRMLAAIERHQPSVIFLAYPNNPSGNLFDTSALEKIIEISPGLVVIDEAYHPFAGKSFIGRLADYPNLLVMRTLSKLGLAGLRLGLLAGRPEWLSHLEKLRLPYNVNVITQLVATKIMQHYDVLQQQADAIRQTRTRLRTFLENLNGIEVFPSNANFILFRLDGASQIFRLLQQHGILVKNLDNSHPLLKNCLRVTVGTPEENDRFCNTLQDLIAGN
protein production: failed

MRISCMSSFLTSDVLIAFSVTFLAGLATLLGGAIVLFFKQPSLRLLSFGLAFSAGAMVYISLTEILNKSIHSFSEVFSAKVGFAFATFAFLTGVIAILLLDRCVPNPHTMLEKTTAQQLDQTQLRRTGLLTMLAITAHNFPEGLATFFATLDSPILGAPLAVAIAIHNIPEGIAIAVPVYMATGQKSYAIWASLLSGLAEPLGAALGYFILAPYMGATMYGIIFGLIAGVMVYLAMDELLPAAKKYSQGHETVYGLVTGMAALATSLVLFQWV
protein production: failed

MAQFLRRFSSSPMANEDEFQSPVEPSQQQSQDCVSESYLIGFVIANIVGLKYYSGRINGREMVGLVREPLNVYDNNAIRVLNTRSEQVGHIERTVAAVLAPMIDSHTIVVEGIVPNTRSNSNRYRIPCQIHVFAKLEASSTVKSTISRGGLVLISESDTSFGLSEAVVVKEQMGNGDKRSVDKIFKLVDENVKLMGKLVAAEPPREVIKSELFAHQKEGLGWLLHREKSGELPPFWEEKDGEFLNTLTNYRSDKRPDPLRGGVFADDMGLGKTLTLLSLIAFDRYGNASTSTPTEEPLDGEGDKIEKKGKKRGRGKSSESVTRKKLKTDDVVGMNVSQKTTLIVCPPSVISAWITQLEEHTVPGILKVYMYHGGERTDDVNELMKYDIVLTTYGTLAVEESWEDSPVKKMEWLRIILDEAHTIKNANAQQSRVVCKLKASRRWAVTGTPIQNGSFDLYSLMAFLRFEPFSIKSYWQSLIQRPLGQGNKKGLSRLQVLMATISLRRTKEKSLIGLPPKTVETCYVELSPEERQLYDHMEGEAKGVVQNLINNGSLMRNYSTVLSIILRLRQLCDDMSLCPPELRSFTTSTSVEDVTDKPELLQKLVAALQDGEDFDCPICISPPTNIIITRCAHIFCRACILQTLQRSKPLCPLCRGSLTQSDLYNAPPPPPDSSNTDGEDAKSSTKSSKVSALLSLLMASRQENPNTKSVVFSQFRKMLLLLETPLKAAGFTILRLDGAMTVKKRTQVIGEFGNPELTGPVVLLASLKASGTGINLTAASRVYLFDPWWNPAVEEQAMDRIHRIGQKQEVKMIRMIARNSIEERVLELQQKKKNLANEAFKRRQKKDEREVNVEDVVALMSL
protein production: failed

MKNVLYTLFAISICLMLGKLANYLLAALPASLYGMIIYALFLQLNWFSPDKITKTNQWFIKHMGVCLVPAGMGIINHFQLIQQHGIALVVIIFSSTFILLTVIGYLSERYLITPDNIKSKAPTGSR
protein production: failed

LADVKHAQSQALFKEHMLETIFNAIPDLFFLMEVDGMIVDYHTGDQKNLYVAPHQFIGKRMTDLLPQEVVSKFQTHVDKILQQEGMITFEYELTMPHGLVHFEARMSYLPEYNQIVLIIRDIS
protein production: failed

MTRTRVIAALVMAPVAMCSILFLPTAWLASLTAIIFLWGLWEWMKLSQVEDTLVRTVLLTLNLLLMVLLVWVSAHSLVLFQIATLIGIAWWILALLWLRFLGFCADPNQRTAKIVKVTAGTLAVIPAWSALVLLHSGDKPGSTFPESLHAHLWLLTAQIMIWAADSGAYFSGRLFGKHKLAPQISPNKTVEGLLGGILTGLAVAAGFGLLNGVTMAQFPSLLLVSFVAILASVIGDLFESLLKRHAGIKDSGSMIPGHGGVLDRIDSTLAALPVFALGKDIFGF
protein production: failed
